Reference: publication PMC11847488, “Hydroxycinnamoyl-coenzyme A: tetrahydroxyhexanedioate hydroxycinnamoyl transferase (HHHT) from Phaseolus vulgaris L.: phylogeny, expression pattern, kinetic parameters, and active site analysis” (PeerJ, 2025)

How the values were obtained:
Assay in all cases: purified protein
Type in all cases: biochemical, Phaseolus vulgaris
purified protein [1] = substrate: CC(C)(COP(=O)(O)OP(=O)(O)OC[C@H]1O[C@@H](n2cnc3c(N)ncnc32)[C@H](O)[C@@H]1OP(=O)(O)O)[C@@H](O)C(=O)NCCC(=O)NCCSC(=O)/C=C/c1ccc(O)c(O)c1; conditions: co-substrate saccharic acid 20 mM, 100 mM sodium phosphate, pH 7.5, 1 mM EDTA, 25 °C
purified protein [2] = substrate: CC(C)(COP(=O)(O)OP(=O)(O)OC[C@H]1O[C@@H](n2cnc3c(N)ncnc32)[C@H](O)[C@@H]1OP(=O)(O)O)[C@@H](O)C(=O)NCCC(=O)NCCSC(=O)/C=C/c1ccc(O)cc1; conditions: co-substrate saccharic acid 20 mM, 100 mM sodium phosphate, pH 7.5, 1 mM EDTA, 25 °C
purified protein [3] = substrate: COc1cc(/C=C/C(=O)SCCNC(=O)CCNC(=O)[C@H](O)C(C)(C)COP(=O)(O)OP(=O)(O)OC[C@H]2O[C@@H](n3cnc4c(N)ncnc43)[C@H](O)[C@@H]2OP(=O)(O)O)ccc1O; conditions: co-substrate saccharic acid 20 mM, 100 mM sodium phosphate, pH 7.5, 1 mM EDTA, 25 °C
purified protein [4] = substrate: O=C(O)[C@@H](O)[C@@H](O)[C@H](O)[C@@H](O)C(=O)O; conditions: co-substrate p-coumaroyl-CoA 100 μM, 100 mM sodium phosphate, pH 7.5, 1 mM EDTA, 25 °C
purified protein [5] = substrate: O=C(O)[C@@H](O)[C@H](O)[C@H](O)[C@@H](O)C(=O)O; conditions: co-substrate p-coumaroyl-CoA 100 μM, 100 mM sodium phosphate, pH 7.5, 1 mM EDTA, 25 °C

B1: HHHT (PvHHHT) (Phaseolus vulgaris) (protein)
chain: MVTIVASYRVLPCEETPKGHLWLADSDQVVRSGHTPTFYVYQAKHNHDTNERLRKSLGEILVHYYPVAGRLSLAEDARIQLDCNAKGVTFIEAETTKSMADYGDFSPGVVAELVPKIDYTQPVEEIPLMLVQSTRLPGGNGFVIGLAVCHVLSDGLGSIQFINSWAKLGRGETLEPHELPYLDRTVLKHQHSSTSPSPCFDHPELKPLPLKLGSSDINAEQKKKTRAVLLKLTRQQVEKLKKEANEQPLQEGVRAYSRFEALAGHIWRSASKARELEEKQPTVVRFNADIRSRVIPPLPKNYYGNALAATVTPKCYVGEIVSKPLSYAAQKVREAIEKLTNEYIRSQLKNVLGEEQLDCIRRLFMGEGERRNVPFAGNPNLHITSWMSMPLYEADFGWGKPVNFGLAYVFAQDRAVIILSPHGDGSIVISMTFQEEHLELFKKFFYETI
notes: full length, N-terminal 6xHis tag (pET28a(+)), codon-optimized, E. coli Rosetta 2 (DE3) pLysS, IMAC purified; tag cleavage not mentioned
Q: With B1 as the protein, how does the Km (purified protein [1]) read?
A: The Km was 5.8 ± 0.4 µM.

Q: What about the kcat (purified protein [1]) of the same protein?
A: Its kcat is 3.4 ± 0.1 s⁻¹.

Q: And the kcat/Km (purified protein [1])?
A: Its kcat/Km is 590000 ± 40000 M⁻¹ s⁻¹.

Q: What about the Km (purified protein [2]) of the same protein?
A: Its Km is 7.2 ± 0.5 µM.

Q: What about the kcat (purified protein [2]) of the same protein?
A: Its kcat is 5.9 ± 0.1 s⁻¹.

Q: What about the kcat/Km (purified protein [2]) of the same protein?
A: The kcat/Km was 820000 ± 60000 M⁻¹ s⁻¹.

Q: And the Km (purified protein [3])?
A: Its Km is 9.6 ± 0.4 µM.

Q: And the kcat (purified protein [3])?
A: The kcat was 6 ± 0.1 s⁻¹.

Q: What about the kcat/Km (purified protein [3]) of the same protein?
A: Its kcat/Km is 630000 ± 20000 M⁻¹ s⁻¹.

Q: And the Km (purified protein [4])?
A: Its Km is 5,200 ± 500 μM.

Q: What about the kcat (purified protein [4]) of the same protein?
A: The kcat was 6.4 ± 0.2 s⁻¹.

Q: What about the kcat/Km (purified protein [4]) of the same protein?
A: Its kcat/Km is 1200 ± 100 M⁻¹ s⁻¹.

Q: What about the Km (purified protein [5]) of the same protein?
A: Its Km is 4,400 ± 700 μM.

Q: What about the kcat (purified protein [5]) of the same protein?
A: The kcat was 1.5 ± 0.1 s⁻¹.

Q: What about the kcat/Km (purified protein [5]) of the same protein?
A: Its kcat/Km is 340 ± 50 M⁻¹ s⁻¹.
